Experimental data published in patent publication US12139520B2 (priority 2020, dated 2024).
Numbered stars: 1 amine (or outer) side, 2 acyl side, 3 side chain; on linkers, the order of the positions; unused ones are H or OH. Bridge positions count the residues as written; N and C are the ends. Square brackets hold non-standard residues; d marks the D form. Side chains are listed from the residue outwards. Ends that are not written are not given here. * marks the point of attachment. C20 diacid = O=C(O)CCCCCCCCCCCCCCCCCCC(=O)*; γGlu = O=C(O)[C@H](CCC(=O)[*:2])N[*:1]; Hyp = O=C(O)[C@@H]1C[C@@H](O)CN1; AEEA = NCCOCCOCC(=O)O

How the values were obtained:
hAMY3R = target: T1, hAMY3R (human, UniProt P30988); test: cell-based or functional assay
T1 sequence 1: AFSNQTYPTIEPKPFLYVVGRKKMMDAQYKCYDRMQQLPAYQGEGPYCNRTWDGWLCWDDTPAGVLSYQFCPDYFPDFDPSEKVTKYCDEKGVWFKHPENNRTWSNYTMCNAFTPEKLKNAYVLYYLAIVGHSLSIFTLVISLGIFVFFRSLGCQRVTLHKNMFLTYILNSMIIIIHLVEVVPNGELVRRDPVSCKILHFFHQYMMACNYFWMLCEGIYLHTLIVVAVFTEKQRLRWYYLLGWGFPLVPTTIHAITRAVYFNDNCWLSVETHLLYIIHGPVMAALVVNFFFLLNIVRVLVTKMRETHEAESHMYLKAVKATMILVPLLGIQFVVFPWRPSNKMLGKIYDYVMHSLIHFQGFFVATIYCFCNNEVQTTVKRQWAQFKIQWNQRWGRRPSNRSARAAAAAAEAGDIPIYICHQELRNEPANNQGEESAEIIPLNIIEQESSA
T1 sequence 2: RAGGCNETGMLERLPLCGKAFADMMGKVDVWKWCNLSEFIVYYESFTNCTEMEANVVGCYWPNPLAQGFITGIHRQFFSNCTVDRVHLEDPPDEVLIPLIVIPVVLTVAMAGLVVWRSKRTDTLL

hAM1R = hAM1R (human, UniProt Q16602); test: cell-based or functional assay

Binder | hAMY3R EC50 (cAMP) (hAMY3R) [nM] | hAM1R EC50 (cAMP) (hAM1R) [nM]
GCRIGTCTVQWLAHQIYQFTDKFKDNVAPRSKISPQT[Hyp]-NH2 (disulfide 2-7 (inferred); ends not checked) [SEQ ID NO: 351] | 0.943 | > 5000
GCRTGTCTVQWLAHQIYQFTDKDKDNVAPRSNIGPNG[Hyp]-NH2 (disulfide 2-7 (inferred); ends not checked) [SEQ ID NO: 352] | 0.04 | 1120
GCRFGTCTVQWLAHQIYQFTDKDKDNVAPRTKISPQG[Hyp]-NH2 (disulfide 2-7 (inferred); ends not checked) [SEQ ID NO: 350] | 0.044 | 1180
GCRTGTCTVQWLAHQIYQFTDKDKDNVAPRTKIGPNG[Hyp]-NH2 (disulfide 2-7 (inferred); ends not checked) [SEQ ID NO: 339] | 0.047 | > 5000
{C20 diacid-γGlu}-KCNTATCTVQRLAHQIQQFTDKDKDNVAPPTNVGSNG[Hyp]-NH2 (disulfide 2-7 (inferred); ends not checked) [SEQ ID NO: 35] | 0.009 | > 5000
KCNTATCTVQWLAHQIYQATDKDKDNVAPPTNVGSNG[Hyp]-NH2 (disulfide 2-7 (inferred); ends not checked) [SEQ ID NO: 338] | 0.089 | > 5000
GCRFGTCTVQWLAHQIYQFTDKDKDNVAPRTNVSPQGY [SEQ ID NO: 340] | 0.022 | 671
GCRFGTCTVQWLAHQIYQFTDKDKDNVAPRSNVSPQGY [SEQ ID NO: 345] | 0.051 | 113
GCRTGTCTVQWLAHQIYQFTDKDKDNVAPRSKVGPQGY [SEQ ID NO: 344] | 0.121 | > 5000
GCRTGTCTVQWLAHQIYQFTDKDKDNVAPRSNVGPQGY [SEQ ID NO: 346] | 0.085 | > 5000
GCRTGTCTVQWLAHQIYQFTDKDKDNVAPRTKVGPQGY [SEQ ID NO: 354] | 0.091 | > 5000
GCRTGTCTVQWLAHQIYQFTDKDKDNVAPRTNIGPNGY [SEQ ID NO: 348] | 0.041 | > 5000
GCRTGTCTVQWLAHQIYQFTDKDKDNVAPRTNIGPQGY [SEQ ID NO: 356] | 0.079 | > 5000
GCRTGTCTVQWLAHQIYQFTDKDKDNVAPRSNVGPQG[Hyp]-NH2 (disulfide 2-7 (inferred); ends not checked) [SEQ ID NO: 342] | 0.054 | > 5000
GCRTGTCTVQWLAHQIYQFTDKDKDNVAPRTNIGPQG[Hyp]-NH2 (disulfide 2-7 (inferred); ends not checked) [SEQ ID NO: 341] | 0.029 | > 5000
{C20 diacid-γGlu}-KCNTATCTVDRLAHQIYQFTDKDKDNVAPPTNVGSNG[Hyp]-NH2 (disulfide 2-7 (inferred); ends not checked) [SEQ ID NO: 4] | 0.006 | > 5000
GCRTGTCTVQWLAHQIYQFTDKDKDNVAPRTKVGPQG[Hyp]-NH2 (disulfide 2-7 (inferred); ends not checked) [SEQ ID NO: 349] | 0.046 | > 5000
GCRFGTCTVQWLAHQIYQFTDKDKDNVAPRTKIGPNG[Hyp]-NH2 (disulfide 2-7 (inferred); ends not checked) [SEQ ID NO: 343] | 0.017 | 117
GCRTGTCTVQWLAHQIYQFTDKDKDNVAPRTNVSPNG[Hyp]-NH2 (disulfide 2-7 (inferred); ends not checked) [SEQ ID NO: 358] | 0.071 | > 5000
GCRFGTCTVQWLAHQIYQFTDKDKDNVAPRTKIGPQG[Hyp]-NH2 (disulfide 2-7 (inferred); ends not checked) [SEQ ID NO: 336] | 0.029 | 738
KCK([AEEA-AEEA-γGlu-C20 diacid])TATCTVQRLAEQIYQFTDKDKDNVAPPTNVGSNG[Hyp]-NH2 (disulfide 2-7 (inferred); ends not checked) [SEQ ID NO: 36] | 0.009 | > 5000
GCRTGTCTVQWLAHQIYQFTDKDKDNVAPRTKIGPQG[Hyp]-NH2 (disulfide 2-7 (inferred); ends not checked) [SEQ ID NO: 357] | 0.115 | > 5000
GCRFGTCTVQWLAHQIYQFTDKDKDNVAPRTKISPNG[Hyp]-NH2 (disulfide 2-7 (inferred); ends not checked) [SEQ ID NO: 337] | 0.019 | 1580
GCRFGTCTVQWLAHQIYQFTDKDKDNVAPRSKVGPQG[Hyp]-NH2 (disulfide 2-7 (inferred); ends not checked) [SEQ ID NO: 353] | 0.027 | 2920
GCRTGTCTVQWLAHQIYQFTDKDKDNVAPRSNIGPQG[Hyp]-NH2 (disulfide 2-7 (inferred); ends not checked) [SEQ ID NO: 359] | 0.145 | > 5000
GCRTGTCTVQWLAHQIYQFTDKDKDNVAPRSKVGPNG[Hyp]-NH2 (disulfide 2-7 (inferred); ends not checked) [SEQ ID NO: 347] | 0.068 | > 5000
GCRTGTCTVQWLAHQIYQFTDKDKDNVAPRSKIGPNG[Hyp]-NH2 (disulfide 2-7 (inferred); ends not checked) [SEQ ID NO: 355] | 0.14 | > 5000
